# Source: publication PMC12723728
# Substrate: C[S+](CC[C@H](N)C(=O)O)C[C@H]1O[C@@H](n2cnc3c(N)ncnc32)[C@H](O)[C@@H]1O
# Experiment: purified protein
# Conditions: co-substrate mGpppAmC RNA 1 μM; 100 nM enzyme; SAM 0.5-6 μM; labelled compound
protein,measurement,value
CMTR2 (Homo sapiens) (protein) MSKCRKTPVQQLASPASFSPDILADIFELFAKNFSYGKPLNNEWQLPDPSEIFTCDHTELNAFLDLKNSLNEVKNLLSDKKLDEWHEHTAFTNKAGKIISHVRKSVNAELCTQAWCKFHEILCSFPLIPQEAFQNGKLNSLHLCEAPGAFIASLNHYLKSHRFPCHWSWVANTLNPYHEANDDLMMIMDDRLIANTLHWWYFGPDNTGDIMTLKFLTGLQNFISSMATVHLVTADGSFDCQGNPGEQEALVSSLHYCEVVTALTTLGNGGSFVLKMFTMFEHCSINLMYLLNCCFDQVHVFKPATSKAGNSEVYVVCLHYKGREAIHPLLSKMTLNFGTEMKRKALFPHHVIPDSFLKRHEECCVFFHKYQLETISENIRLFECMGKAEQEKLNNLRDCAIQYFMQKFQLKHLSRNNWLVKKSSIGCSTNTKWFGQRNKYFKTYNERKMLEALSWKDKVAKGYFNSWAEEHGVYHPGQSSILEGTASNLECHLWHILEGKKLPKVKCSPFCNGEILKTLNEAIEKSLGGAFNLDSKFRPKQQYSCSCHVFSEELIFSELCSLTECLQDEQVVVPSNQIKCLLVGFSTLRNIKMHIPLEVRLLESAELTTFSCSLLHDGDPTYQRLFLDCLLHSLRELHTGDVMILPVLSCFTRFMAGLIFVLHSCFRFITFVCPTSSDPLRTCAVLLCVGYQDLPNPVFRYLQSVNELLSTLLNSDSPQQVLQFVPMEVLLKGALLDFLWDLNAAIAKRHLHFIIQREREEIINSLQLQN,K0.5,1.3 ± 0.1 µM
same,kcat,0.000944 ± 0.00011 s⁻¹
